This note sets out measurements from US10239925B2, “Peptides and combination of peptides for use in immunotherapy against ovarian cancer and other cancers” (IMMATICS BIOTECHNOLOGIES GMBH, priority 2015, dated 2019).

For the experiment, the target named is HLA-A*02:01 (Homo sapiens, UniProt P04439, D140Y/D185E/D98H/E176V/E277Q/G131W/G231S/I119V/I121R/I166T/I218V/L300P/L318F/N151K/N90K/P208A/P217A/Q86G/Q94H/R138H/R169H/T345S). Put plainly: MHC binding assay (UV-ligand exchange, anti-β2m ELISA, peptide exchange yield). To be noted: binding to HLA-A*02:01. In outline: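 Peptide-MHC complexes formed by UV-ligand exchange, cleaving a UV-sensitive placeholder peptide in favour of the test peptide. Exchange yield measured by ELISA: monomers diluted 100-fold onto streptavidin-coated plates, 1 h 37 °C, detected with 2 ug/ml HRP anti-β2m and TMB, absorbance at 450 nm.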
Take “25 (FLPDEPYIKV; listed as Homo sapiens) [compound 25]”: the “Peptide exchange (MHC class I binding score, peptide exchange yield)” value (from here on “Peptide exchange”) is listed as ““+++” (>50 = +++)”.

“449 (KLAEGLDIQL; listed as Homo sapiens) [compound 449]”: the “Peptide exchange” value is recorded as ““+++” (>50 = +++)”.

As for “116 (YHIDEEVGF; listed as Homo sapiens) [compound 116]”, the “Peptide exchange” value is ““+” (>10% = +)”.

On to “456 (LLIGHLERV; listed as Homo sapiens) [compound 456]”, for which the “Peptide exchange” value is reported as ““+++” (>50 = +++)”.

For the substance “124 (ALYETELADA; listed as Homo sapiens) [compound 124]”, the “Peptide exchange” value is recorded as ““++” (>20% = ++)”.

With “355 (SIQQSIERLLV; listed as Homo sapiens) [compound 355]”, the “Peptide exchange” value is listed as ““++” (>20% = ++)”.

Take “97 (SLINGSFLV; listed as Homo sapiens) [compound 97]”: the “Peptide exchange” value is on record as ““+++” (>50 = +++)”.

For the substance “474 (YLDPALELGPRNV; listed as Homo sapiens) [compound 474]”, the “Peptide exchange” value was ““+++” (>50 = +++)”.

Consider “428 (KLGHTDILVGV; listed as Homo sapiens) [compound 428]”, for which the “Peptide exchange” value is listed as ““++” (>20% = ++)”.

On to “344 (YLQDQHLLLTV; listed as Homo sapiens) [compound 344]”, for which the “Peptide exchange” value was ““+++” (>50 = +++)”.

Take “433 (AMLNEPWAV; listed as Homo sapiens) [compound 433]”: the “Peptide exchange” value is listed as ““+++” (>50 = +++)”.

Take “188 (GLFPVTPEAV; listed as Homo sapiens) [compound 188]”: the “Peptide exchange” value is listed as ““+++” (>50 = +++)”.

As for “494 (ALQPEPIKV; listed as Homo sapiens) [compound 494]”, the “Peptide exchange” value is ““++” (>20% = ++)”.

For “304 (MTLGQIYYL; listed as Homo sapiens) [compound 304]”, the “Peptide exchange” value was ““+++” (>50 = +++)”.

Regarding “461 (VMFRTPLASV; listed as Homo sapiens) [compound 461]”, the “Peptide exchange” value is given as ““++” (>20% = ++)”.

For “62 (VLLDVSAGQLLM; listed as Homo sapiens) [compound 62]”, the “Peptide exchange” value is listed as ““++++” (>75% = ++++)”.

Regarding “135 (ALSEVDFQL; listed as Homo sapiens) [compound 135]”, the “Peptide exchange” value is reported as ““+++” (>50 = +++)”.

On to “609 (ALWKQLLEL; listed as Homo sapiens) [compound 609]”, for which the “Peptide exchange” value was ““+++” (>50 = +++)”.

As for “276 (ALFTFSPLTV; listed as Homo sapiens) [compound 276]”, the “Peptide exchange” value was ““+++” (>50 = +++)”.

Turning to “335 (YSLSSVVTV; listed as Homo sapiens) [compound 335]”, the “Peptide exchange” value is given as ““+++” (>50 = +++)”.

Take “158 (KLFDVDEDGYI; listed as Homo sapiens) [compound 158]”: the “Peptide exchange” value is on record as ““+++” (>50 = +++)”.

On to “589 (KLYPQLPAEI; listed as Homo sapiens) [compound 589]”, for which the “Peptide exchange” value was ““+++” (>50 = +++)”.

Consider “478 (YLLHEKLNL; listed as Homo sapiens) [compound 478]”, for which the “Peptide exchange” value is ““+++” (>50 = +++)”.

With “6 (VLVSDGVHSV; listed as Homo sapiens) [compound 6]”, the “Peptide exchange” value is recorded as ““+++” (>50 = +++)”.

Turning to “377 (FLLDSSASV; listed as Homo sapiens) [compound 377]”, the “Peptide exchange” value was ““++” (>20% = ++)”.

In the case of “253 (GLDAATATV; listed as Homo sapiens) [compound 253]”, the “Peptide exchange” value is recorded as ““++” (>20% = ++)”.

“386 (ILFRYPLTI; listed as Homo sapiens) [compound 386]”: the “Peptide exchange” value is recorded as ““+++” (>50 = +++)”.

For “484 (SLIEKVTQL; listed as Homo sapiens) [compound 484]”, the “Peptide exchange” value was ““+++” (>50 = +++)”.

With “101 (ILVGGGALATV; listed as Homo sapiens) [compound 101]”, the “Peptide exchange” value is ““+++” (>50 = +++)”.

“230 (ILVDWLVEV; listed as Homo sapiens) [compound 230]”: the “Peptide exchange” value is on record as ““+” (>10% = +)”.

Take “218 (SALEELVNV; listed as Homo sapiens) [compound 218]”: the “Peptide exchange” value is recorded as ““++” (>20% = ++)”.

Consider “562 (YLEELPEKLKL; listed as Homo sapiens) [compound 562]”, for which the “Peptide exchange” value was ““+++” (>50 = +++)”.

Consider “53 (KMIETDILQKV; listed as Homo sapiens) [compound 53]”, for which the “Peptide exchange” value was ““++++” (>75% = ++++)”.

For the substance “539 (ALFDAQAQV; listed as Homo sapiens) [compound 539]”, the “Peptide exchange” value is on record as ““+++” (>50 = +++)”.

“103 (TLAEEVVAL; listed as Homo sapiens) [compound 103]”: the “Peptide exchange” value is ““+++” (>50 = +++)”.

Take “314 (ALIAEGIALV; listed as Homo sapiens) [compound 314]”: the “Peptide exchange” value is given as ““+++” (>50 = +++)”.

As for “515 (LLQELVLFL; listed as Homo sapiens) [compound 515]”, the “Peptide exchange” value is on record as ““+++” (>50 = +++)”.

As to “209 (KLIESKHEV; listed as Homo sapiens) [compound 209]”, the “Peptide exchange” value is reported as ““++” (>20% = ++)”.

As for “28 (QLLDETSAITL; listed as Homo sapiens) [compound 28]”, the “Peptide exchange” value is ““+++” (>50 = +++)”.

As for “142 (FLFATPVFI; listed as Homo sapiens) [compound 142]”, the “Peptide exchange” value is given as ““+++” (>50 = +++)”.

Regarding “221 (ALYEEGLLL; listed as Homo sapiens) [compound 221]”, the “Peptide exchange” value is reported as ““++” (>20% = ++)”.

In the case of “67 (TLLAEALVTV; listed as Homo sapiens) [compound 67]”, the “Peptide exchange” value is ““+++” (>50 = +++)”.

On to “237 (ALLEASGTLLL; listed as Homo sapiens) [compound 237]”, for which the “Peptide exchange” value is on record as ““++++” (>75% = ++++)”.

Take “185 (FLIDDKGYTL; listed as Homo sapiens) [compound 185]”: the “Peptide exchange” value was ““++” (>20% = ++)”.

As for “177 (YLLPEEYTSTL; listed as Homo sapiens) [compound 177]”, the “Peptide exchange” value was ““++++” (>75% = ++++)”.

As to “205 (SLYPGTETMGL; listed as Homo sapiens) [compound 205]”, the “Peptide exchange” value is reported as ““+++” (>50 = +++)”.

For “178 (ALTEIAFVV; listed as Homo sapiens) [compound 178]”, the “Peptide exchange” value was ““++++” (>75% = ++++)”.

With “162 (YQQAQVPSV; listed as Homo sapiens) [compound 162]”, the “Peptide exchange” value was ““+++” (>50 = +++)”.

As for “575 (YLISQVEGHQV; listed as Homo sapiens) [compound 575]”, the “Peptide exchange” value is given as ““+++” (>50 = +++)”.

Take “232 (ALLEAQDVELYL; listed as Homo sapiens) [compound 232]”: the “Peptide exchange” value is given as ““++” (>20% = ++)”.

Turning to “623 (YLVEDIQHI; listed as Homo sapiens) [compound 623]”, the “Peptide exchange” value is given as ““+++” (>50 = +++)”.

With “570 (ALANQIPTV; listed as Homo sapiens) [compound 570]”, the “Peptide exchange” value is ““++” (>20% = ++)”.

Regarding “525 (VLLEAGEGLVTI; listed as Homo sapiens) [compound 525]”, the “Peptide exchange” value is ““+++” (>50 = +++)”.

“117 (ILPDGEDFLAV; listed as Homo sapiens) [compound 117]”: the “Peptide exchange” value was ““+++” (>50 = +++)”.

As for “367 (SLQNHNHQL; listed as Homo sapiens) [compound 367]”, the “Peptide exchange” value is given as ““+++” (>50 = +++)”.

As for “481 (GLIEDYEALL; listed as Homo sapiens) [compound 481]”, the “Peptide exchange” value was ““+++” (>50 = +++)”.

On to “365 (YVIDQGETDVYV; listed as Homo sapiens) [compound 365]”, for which the “Peptide exchange” value is given as ““+++” (>50 = +++)”.

Consider “544 (LLWDVPAPSL; listed as Homo sapiens) [compound 544]”, for which the “Peptide exchange” value was ““+++” (>50 = +++)”.

Turning to “159 (GLVGNPLPSV; listed as Homo sapiens) [compound 159]”, the “Peptide exchange” value is reported as ““++++” (>75% = ++++)”.

Consider “514 (ILVDWLVQV; listed as Homo sapiens) [compound 514]”, for which the “Peptide exchange” value is on record as ““+++” (>50 = +++)”.

As to “621 (VLMDRLPSLL; listed as Homo sapiens) [compound 621]”, the “Peptide exchange” value is reported as ““++++” (>75% = ++++)”.
